Measurements reported in publication PMC2889002.

Molecular target: GST fusion of the full-length cytoplasmic loop of connexin43 (GST-CLFL) (UniProt P23242)
Test: pull-down

Sequence of UniProt P23242 (P23242 98-155): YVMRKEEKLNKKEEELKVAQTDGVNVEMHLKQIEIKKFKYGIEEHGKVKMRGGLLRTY

affinity relative to that of Cx43-CT for β-tubulin: 0.2 fold
Substance: β-tubulin (Tubulin β5/2c) of mouse brain (from UniProt P99024 1-444) (natural protein)
